Starred links: 1 amine or outer side, 2 acyl side, 3 side chain; linkers in the order of their positions; H or OH if unused. Non-standard residues stand in square brackets, D forms with d. Tyr(Bzl) = Obtyr, O-benzyl-L-tyrosine, O=C([C@H](Cc1ccc(OCc2ccccc2)cc1)N[*:1])[*:2]; Tyr(Et) = Oetyr, O-ethyl-L-tyrosine, CCOc1ccc(C[C@H](N[*:1])C(=O)[*:2])cc1; Obtyr = O-benzyl-L-tyrosine, O=C([C@H](Cc1ccc(OCc2ccccc2)cc1)N[*:1])[*:2]; Oetyr = O-ethyl-L-tyrosine, CCOc1ccc(C[C@H](N[*:1])C(=O)[*:2])cc1; 1Nal = N[C@@H](Cc1cccc2ccccc12)C(=O)O; 2Nal = N[C@@H](Cc1ccc2ccccc2c1)C(=O)O; Cya = N[C@@H](CS(=O)(=O)O)C(=O)O
B1: Scr-20 (peptide)
peptide: Ac-[2Nal]EDSDDYDDIDDDW-NH2
SMILES: CC[C@H](C)[C@H](NC(=O)[C@H](CC(=O)O)NC(=O)[C@H](CC(=O)O)NC(=O)[C@H](Cc1ccc(O)cc1)NC(=O)[C@H](CC(=O)O)NC(=O)[C@H](CC(=O)O)NC(=O)[C@H](CO)NC(=O)[C@H](CC(=O)O)NC(=O)[C@H](CCC(=O)O)NC(=O)[C@H](Cc1ccc2ccccc2c1)NC(C)=O)C(=O)N[C@@H](CC(=O)O)C(=O)N[C@@H](CC(=O)O)C(=O)N[C@@H](CC(=O)O)C(=O)N[C@@H](Cc1c[nH]c2ccccc12)C(N)=O
B2: EDDS(2Nala)… (peptide)
peptide: Ac-EDDS[2Nal]VWWGGADTD-NH2
SMILES: CC(=O)N[C@@H](CCC(=O)O)C(=O)N[C@@H](CC(=O)O)C(=O)N[C@@H](CC(=O)O)C(=O)N[C@@H](CO)C(=O)N[C@@H](Cc1ccc2ccccc2c1)C(=O)N[C@H](C(=O)N[C@@H](Cc1c[nH]c2ccccc12)C(=O)N[C@@H](Cc1c[nH]c2ccccc12)C(=O)NCC(=O)NCC(=O)N[C@@H](C)C(=O)N[C@@H](CC(=O)O)C(=O)N[C@H](C(=O)N[C@@H](CC(=O)O)C(N)=O)[C@@H](C)O)C(C)C
B3: EDDS(Oetyr)… (peptide)
peptide: Ac-EDDS[Tyr(Et)]VWWGGADTD-NH2
SMILES: CCOc1ccc(C[C@H](NC(=O)[C@H](CO)NC(=O)[C@H](CC(=O)O)NC(=O)[C@H](CC(=O)O)NC(=O)[C@H](CCC(=O)O)NC(C)=O)C(=O)N[C@H](C(=O)N[C@@H](Cc2c[nH]c3ccccc23)C(=O)N[C@@H](Cc2c[nH]c3ccccc23)C(=O)NCC(=O)NCC(=O)N[C@@H](C)C(=O)N[C@@H](CC(=O)O)C(=O)N[C@H](C(=O)N[C@@H](CC(=O)O)C(N)=O)[C@@H](C)O)C(C)C)cc1
B4: peptide 20 (peptide)
peptide: EDDDAIDWYDSDDD
modifications: N-terminal acetyl; C-terminal amide; 2Nala (3-(2-naphthyl)-L-alanine) at position 5
B5: peptide 33 (peptide)
peptide: Ac-EDDD[Obtyr]IDWYDSDDD-NH2
SMILES: CC[C@H](C)[C@H](NC(=O)[C@H](Cc1ccc(OCc2ccccc2)cc1)NC(=O)[C@H](CC(=O)O)NC(=O)[C@H](CC(=O)O)NC(=O)[C@H](CC(=O)O)NC(=O)[C@H](CCC(=O)O)NC(C)=O)C(=O)N[C@@H](CC(=O)O)C(=O)N[C@@H](Cc1c[nH]c2ccccc12)C(=O)N[C@@H](Cc1ccc(O)cc1)C(=O)N[C@@H](CC(=O)O)C(=O)N[C@@H](CO)C(=O)N[C@@H](CC(=O)O)C(=O)N[C@@H](CC(=O)O)C(=O)N[C@@H](CC(=O)O)C(N)=O
B6: EDDSDVWW(1Nala)GADTD (peptide)
peptide: Ac-EDDSDVWW[1Nal]GADTD-NH2
SMILES: CC(=O)N[C@@H](CCC(=O)O)C(=O)N[C@@H](CC(=O)O)C(=O)N[C@@H](CC(=O)O)C(=O)N[C@@H](CO)C(=O)N[C@@H](CC(=O)O)C(=O)N[C@H](C(=O)N[C@@H](Cc1c[nH]c2ccccc12)C(=O)N[C@@H](Cc1c[nH]c2ccccc12)C(=O)N[C@@H](Cc1cccc2ccccc12)C(=O)NCC(=O)N[C@@H](C)C(=O)N[C@@H](CC(=O)O)C(=O)N[C@H](C(=O)N[C@@H](CC(=O)O)C(N)=O)[C@@H](C)O)C(C)C
B7: ETEFI(Cya)WGPTGDED (peptide)
peptide: Ac-ETEFI[Cya]WGPTGDED-NH2
SMILES: CC[C@H](C)[C@H](NC(=O)[C@H](Cc1ccccc1)NC(=O)[C@H](CCC(=O)O)NC(=O)[C@@H](NC(=O)[C@H](CCC(=O)O)NC(C)=O)[C@@H](C)O)C(=O)N[C@@H](CS(=O)(=O)O)C(=O)N[C@@H](Cc1c[nH]c2ccccc12)C(=O)NCC(=O)N1CCC[C@H]1C(=O)N[C@H](C(=O)NCC(=O)N[C@@H](CC(=O)O)C(=O)N[C@@H](CCC(=O)O)C(=O)N[C@@H](CC(=O)O)C(N)=O)[C@@H](C)O
B8: peptide 35 (peptide)
peptide: Ac-EDDD[Obtyr]IDWGPTSDDD-NH2
SMILES: CC[C@H](C)[C@H](NC(=O)[C@H](Cc1ccc(OCc2ccccc2)cc1)NC(=O)[C@H](CC(=O)O)NC(=O)[C@H](CC(=O)O)NC(=O)[C@H](CC(=O)O)NC(=O)[C@H](CCC(=O)O)NC(C)=O)C(=O)N[C@@H](CC(=O)O)C(=O)N[C@@H](Cc1c[nH]c2ccccc12)C(=O)NCC(=O)N1CCC[C@H]1C(=O)N[C@H](C(=O)N[C@@H](CO)C(=O)N[C@@H](CC(=O)O)C(=O)N[C@@H](CC(=O)O)C(=O)N[C@@H](CC(=O)O)C(N)=O)[C@@H](C)O
B9: peptide 34 (peptide)
peptide: Ac-EDDD[Oetyr]IDWGPTSDDD-NH2
SMILES: CCOc1ccc(C[C@H](NC(=O)[C@H](CC(=O)O)NC(=O)[C@H](CC(=O)O)NC(=O)[C@H](CC(=O)O)NC(=O)[C@H](CCC(=O)O)NC(C)=O)C(=O)N[C@H](C(=O)N[C@@H](CC(=O)O)C(=O)N[C@@H](Cc2c[nH]c3ccccc23)C(=O)NCC(=O)N2CCC[C@H]2C(=O)N[C@H](C(=O)N[C@@H](CO)C(=O)N[C@@H](CC(=O)O)C(=O)N[C@@H](CC(=O)O)C(=O)N[C@@H](CC(=O)O)C(N)=O)[C@@H](C)O)[C@@H](C)CC)cc1
B10: peptide 32 (peptide)
peptide: Ac-EDDD[Oetyr]IDWYDSDDD-NH2
SMILES: CCOc1ccc(C[C@H](NC(=O)[C@H](CC(=O)O)NC(=O)[C@H](CC(=O)O)NC(=O)[C@H](CC(=O)O)NC(=O)[C@H](CCC(=O)O)NC(C)=O)C(=O)N[C@H](C(=O)N[C@@H](CC(=O)O)C(=O)N[C@@H](Cc2c[nH]c3ccccc23)C(=O)N[C@@H](Cc2ccc(O)cc2)C(=O)N[C@@H](CC(=O)O)C(=O)N[C@@H](CO)C(=O)N[C@@H](CC(=O)O)C(=O)N[C@@H](CC(=O)O)C(=O)N[C@@H](CC(=O)O)C(N)=O)[C@@H](C)CC)cc1
B11: EDDS(Obtyr)… (peptide)
peptide: Ac-EDDS[Tyr(Bzl)]VWWGGADTD-NH2
SMILES: CC(=O)N[C@@H](CCC(=O)O)C(=O)N[C@@H](CC(=O)O)C(=O)N[C@@H](CC(=O)O)C(=O)N[C@@H](CO)C(=O)N[C@@H](Cc1ccc(OCc2ccccc2)cc1)C(=O)N[C@H](C(=O)N[C@@H](Cc1c[nH]c2ccccc12)C(=O)N[C@@H](Cc1c[nH]c2ccccc12)C(=O)NCC(=O)NCC(=O)N[C@@H](C)C(=O)N[C@@H](CC(=O)O)C(=O)N[C@H](C(=O)N[C@@H](CC(=O)O)C(N)=O)[C@@H](C)O)C(C)C
B12: peptide 21 (peptide)
peptide: Ac-EDDD[2Nal]IDWGPTSDDD-NH2
SMILES: CC[C@H](C)[C@H](NC(=O)[C@H](Cc1ccc2ccccc2c1)NC(=O)[C@H](CC(=O)O)NC(=O)[C@H](CC(=O)O)NC(=O)[C@H](CC(=O)O)NC(=O)[C@H](CCC(=O)O)NC(C)=O)C(=O)N[C@@H](CC(=O)O)C(=O)N[C@@H](Cc1c[nH]c2ccccc12)C(=O)NCC(=O)N1CCC[C@H]1C(=O)N[C@H](C(=O)N[C@@H](CO)C(=O)N[C@@H](CC(=O)O)C(=O)N[C@@H](CC(=O)O)C(=O)N[C@@H](CC(=O)O)C(N)=O)[C@@H](C)O

What was measured:
[1] = target: Sushi domains (SD1/2) protein of GABAB1a (GB1a); assay: FP competition vs TAMRA AJAP-1probe
[2] = target: Sushi domains (SD1/2) protein of the GABAB1a (GB1a) subunit, recombinant; assay: FP competition
Chain of Sushi domains (SD1/2) protein of the GABAB1a (GB1a) subunit, recombinant (Q9Z0U4 29-158): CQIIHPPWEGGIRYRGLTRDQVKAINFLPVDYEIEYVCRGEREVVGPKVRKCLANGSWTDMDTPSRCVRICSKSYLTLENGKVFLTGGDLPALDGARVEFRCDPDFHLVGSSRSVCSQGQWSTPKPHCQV

Chain of Sushi domains (SD1/2) protein of GABAB1a (GB1a) (Q9Z0U4 29-158): as above

Row | Binder | Ki [1] [nM] | fold increased affinity compared to Asp207Trp [2] [fold] | Ki [2] [nM]
1 | B1 | 31200 |  | 
2 | B2 | 43 | 2 | 
3 | B3 | 46 | 2 | 46.3
4 | B4 | 1.5 |  | 
5 | B5 | 9.3 |  | 
6 | B6 | 114 |  | 100
7 | B7 | 12 |  | 
8 | B8 | 9.5 |  | 
9 | B9 | 6.5 |  | 
10 | B10 | 5.3 |  | 
11 | B11 | 28 | 4 | 27.1
12 | B12 | 5.3 |  | 

Source: patent US20260193293A1, “PEPTIDES CAPABLE OF INHIBITING PROTEIN-PROTEIN INTERACTIONS AT GABAB1A SUBUNIT AND USES THEREOF” (UNIVERSITY OF COPENHAGEN, priority 2022, published 2026)
